Experimental data published in article PMC7907060, “Interaction of Plasmodium falciparum apicortin with α- and β-tubulin is critical for parasite growth and survival” (Scientific Reports, 2021).

Key:
[1] = target: T1, recombinant Plasmodium falciparum α-tubulin-I (Plasmodium falciparum, UniProt Q6ZLZ9 1-453); assay: SPR; apicortin (12 µM) immobilised by amine coupling on a gold sensor chip; tubulins 100 nM-1 µM injected, 500 s; PBS; Autolab ESPRIT; conditions: both partners purified
T1 construct: Plasmodium falciparum α-tubulin-I, cloned in pET28a+; also called Pfα-tubulin-I

[2] = target: T2, recombinant Plasmodium falciparum β-tubulin (Plasmodium falciparum, UniProt Q7KQL5 1-445); assay: as above; conditions: both partners purified
T2 construct: Plasmodium falciparum β-tubulin, cloned in pET28a+; also called Pfβ-tubulin

B1: recombinant Plasmodium falciparum apicortin (natural protein, UniProt C0H4E4 1-238, looked up)
chain: MENFDEVIKEYQKYLEGKEKTHKINSCKHPCCEEDNLKSVKNYFKVYHKKYIPSIIQKKKKERNEHAPPLLKDIQDKRCTNVFERLNDKQFYTGVQKTKFMELLKNNKNKSSYCYNNIKVFSTMLKKPCNYVVTPGTLGIQKYGIQTGRPKTIFLFNNEKKYDKGVYFLVKSYIKNIKSLCYEITKILQPSIGPTRKIYDQNFSLVRNVNDLINGGKYLCTSGDPPAPIRNLSLHFLT
notes: Plasmodium falciparum apicortin, cloned in pET28a+; the His tag is surmised from pET28a+ and Ni-NTA; also called PfApicortin
Kd [1]: 120 nM | Kd [2]: 750 nM
